“And” between values parts separate entries of the source, which are not always exact repeats. Equal entries are not always repeated. Where two headings read alike, the source gives them in different places.
Assays:
[1] = target: human NKG2D (hNKG2D) on the cell surface (human) (UniProt P26718); experiment: cell-based or functional assay
[2] = target: recombinant NKG2D-Fc protein (R&D Systems), immobilized on a Biacore CM5 chip (human) (UniProt P26718); experiment: SPR (Biacore), NKG2D-Fc immobilized on CM5 chip, antibody in solution
[3] = target: human NKG2D (hNKG2D) on the cell surface (human) (UniProt P26718); experiment: flow cytometry, dose-response on NKG2D- and DAP10-expressing BaF/3 cells
[4] = target: human NKG2D (hNKG2D) on the cell surface (human) (UniProt P26718); experiment: flow cytometry, NKG2D/DAP10 BaF/3 cells pre-incubated with antibody, then 1 µg hFc-MICA (competitor)
[5] = target: human NKG2D (hNKG2D) on the cell surface (human) (UniProt P26718); experiment: flow cytometry, NKG2D-expressing cells pre-incubated with ON72, then recombinant 16F16 (competitor)
[6] = target: human NKG2D (hNKG2D) on the cell surface (human) (UniProt P26718); experiment: flow cytometry, NKG2D/DAP10 BaF/3 cells pre-incubated with antibody, then 1 µg hFc-MICA (competitor); remark: listed apart in the source
[7] = target: human NKG2D (hNKG2D) on the cell surface (human) (UniProt P26718); experiment: flow cytometry, dose-response on NKG2D- and DAP10-expressing BaF/3 cells, y axis % of max binding
[8] = target: human NKG2D (hNKG2D) on the cell surface (human) (UniProt P26718); experiment: flow cytometry, NKG2D-expressing cells pre-incubated with ON72 (0.3 µg), then 16F16 IgG4 (0.3 µg, competitor); legend of FIG. 9A
[9] = target: human NKG2D (hNKG2D) on the cell surface (human) (UniProt P26718); experiment: flow cytometry blocking assay on NKG2D/DAP10-expressing BaF/3 cells: pre-incubation with the antibody, then 1 µg MICA-Fc (hFc-MICA, m12, for ON72 according to paragraph 390); y axis % remaining MICA-Fc binding

Chain of recombinant NKG2D-Fc protein (R&D Systems), immobilized on a Biacore CM5 chip (human) (P26718 78-216): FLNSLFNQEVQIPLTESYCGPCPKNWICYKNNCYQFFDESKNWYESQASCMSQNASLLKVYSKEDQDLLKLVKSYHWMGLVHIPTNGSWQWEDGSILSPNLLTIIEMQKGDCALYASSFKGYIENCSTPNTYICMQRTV
Chain of human NKG2D (hNKG2D) on the cell surface (human) (P26718 whole entry T72A): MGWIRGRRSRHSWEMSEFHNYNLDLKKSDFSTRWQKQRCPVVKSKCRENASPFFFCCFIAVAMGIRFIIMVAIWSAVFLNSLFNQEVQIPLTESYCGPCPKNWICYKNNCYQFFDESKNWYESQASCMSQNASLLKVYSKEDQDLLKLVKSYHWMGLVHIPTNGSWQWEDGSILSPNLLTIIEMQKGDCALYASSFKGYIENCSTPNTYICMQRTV

% proliferation of PBMC, stimulation CD3 0.1 + CD28 + ON72 (immobilized antibodies) [1]: 22.9%
% proliferation of PBMC, stimulation CD3 0.1 + ON72 (immobilized antibodies) [1]: 7.12%
% proliferation of PBMC, stimulation CD3 0.3 + CD28 + ON72 (immobilized antibodies) [1]: 40.1%
% proliferation of PBMC, stimulation CD3 0.3 + ON72 (immobilized antibodies) [1]: 28.4%
down-modulation of cell-surface NKG2D, NKG2D/DAP10 BaF/3 cells, overnight incubation [1]: 55%
internalization of NKG2D at 1 h, NKG2D+ lymphocytes in whole blood, 0.1 µg/ml [1]: 50 to 75%
internalization of NKG2D at 24 h, NKG2D+ lymphocytes in whole blood, 0.1 µg/ml [1]: 100%
Kd [2]: 0.17 nM
koff [2]: 0.00011 s⁻¹
kon [2]: 960000 M⁻¹ s⁻¹
EC50 [3]: 0.062 µg/mL and 0.048 nM
IC50 [4]: 0.019 µg/mL
full blockade of 1 µg MICA-Fc (antibody concentration) [4]: 0.54 µg/mL
% of 16F16 binding blocked [5]: 82%
IC50 [6]: 0.02 nM
full blockade of 1 µg MICA-Fc (antibody concentration) [6]: 0.24 nM
EC50 (read off the curve) [7]: 0.06 nM
% of 16F16 binding prevented [8]: 85%
IC50 (read off the curve) [9]: 0.02 nM
Substance: ON72, commercially available murine anti-hNKG2D monoclonal antibody (Beckman Coulter Inc.)
EC50 (µg/ml), inhibition of NK cell killing of ULPB3-expressing target cells (51Cr release) [1]: 0.065 µg/mL

From US20100056764A1
